Earlier results on one substance are cited in patent publication US20050118241A1, “Platform for transdermal formulations (ptf)” (priority 2002, published 2005).

One may read the half-life as the time needed for the level to fall by half in the phase considered.

The conditions of the series: extensively degraded in liver, kidney and plasma.

With glucagon, the half-life was 3 to 6 min.
